T1: human CD81 on CD81-expressing cells (Jurkat E6.1, human PBMC, Ramos) (human, UniProt P60033 1-236)
T1 sequence: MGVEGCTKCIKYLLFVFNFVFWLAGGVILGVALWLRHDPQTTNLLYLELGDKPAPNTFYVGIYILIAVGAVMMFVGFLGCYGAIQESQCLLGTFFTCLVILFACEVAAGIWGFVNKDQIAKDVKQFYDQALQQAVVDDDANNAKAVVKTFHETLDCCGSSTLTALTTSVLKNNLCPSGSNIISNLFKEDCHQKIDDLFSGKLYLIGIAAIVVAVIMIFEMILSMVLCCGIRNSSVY

T2: human CD81 mutant V169A (human, UniProt P60033 1-236, limits assumed)
T2 construct: as m30; not shown: C-terminal V5 and 6xHis tags
T2 sequence: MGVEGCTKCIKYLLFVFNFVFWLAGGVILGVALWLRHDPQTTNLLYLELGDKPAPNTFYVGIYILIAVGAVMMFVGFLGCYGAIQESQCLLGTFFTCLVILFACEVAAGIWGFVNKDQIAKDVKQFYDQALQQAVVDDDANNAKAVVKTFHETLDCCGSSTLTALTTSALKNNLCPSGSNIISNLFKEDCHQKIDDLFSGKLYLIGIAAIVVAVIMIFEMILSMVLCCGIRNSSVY

T3: human CD81 mutant V135A (human, UniProt P60033 1-236, limits assumed)
T3 construct: as m30; not shown: C-terminal V5 and 6xHis tags
T3 sequence: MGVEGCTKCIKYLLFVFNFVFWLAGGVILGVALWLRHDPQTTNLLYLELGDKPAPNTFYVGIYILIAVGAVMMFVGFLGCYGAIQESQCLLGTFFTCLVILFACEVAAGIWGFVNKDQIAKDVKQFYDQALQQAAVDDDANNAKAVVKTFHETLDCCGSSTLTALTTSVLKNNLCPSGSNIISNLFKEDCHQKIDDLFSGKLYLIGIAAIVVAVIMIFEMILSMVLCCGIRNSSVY

T4: human CD81 mutant A164T (human, UniProt P60033 1-236, limits assumed)
T4 construct: as m30; not shown: C-terminal V5 and 6xHis tags
T4 sequence: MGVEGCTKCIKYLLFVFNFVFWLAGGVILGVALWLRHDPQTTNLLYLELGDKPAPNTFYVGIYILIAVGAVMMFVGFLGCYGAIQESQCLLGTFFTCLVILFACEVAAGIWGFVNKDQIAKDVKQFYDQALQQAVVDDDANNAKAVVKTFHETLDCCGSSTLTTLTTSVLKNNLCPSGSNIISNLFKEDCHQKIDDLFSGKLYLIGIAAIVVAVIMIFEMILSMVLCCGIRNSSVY

T5: human CD81 mutant L165A (human, UniProt P60033 1-236, limits assumed)
T5 construct: as m30; not shown: C-terminal V5 and 6xHis tags
T5 sequence: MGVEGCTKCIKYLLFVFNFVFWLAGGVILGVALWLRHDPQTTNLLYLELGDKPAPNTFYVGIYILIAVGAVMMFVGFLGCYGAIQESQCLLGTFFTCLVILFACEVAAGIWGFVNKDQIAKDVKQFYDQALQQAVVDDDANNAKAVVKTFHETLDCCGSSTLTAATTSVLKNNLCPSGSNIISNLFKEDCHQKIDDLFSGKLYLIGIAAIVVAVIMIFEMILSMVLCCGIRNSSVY

T6: human CD81 mutant D137A (human, UniProt P60033 1-236, limits assumed)
T6 construct: as m30; not shown: C-terminal V5 and 6xHis tags
T6 sequence: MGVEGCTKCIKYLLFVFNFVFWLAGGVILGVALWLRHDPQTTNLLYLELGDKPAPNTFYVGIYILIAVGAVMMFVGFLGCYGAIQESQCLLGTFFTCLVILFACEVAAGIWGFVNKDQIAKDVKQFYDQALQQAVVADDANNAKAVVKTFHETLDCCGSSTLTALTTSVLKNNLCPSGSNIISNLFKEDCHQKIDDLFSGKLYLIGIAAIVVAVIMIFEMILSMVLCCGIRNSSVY

T7: human CD81 mutant V169L (human, UniProt P60033 1-236, limits assumed)
T7 construct: as m30; not shown: C-terminal V5 and 6xHis tags
T7 sequence: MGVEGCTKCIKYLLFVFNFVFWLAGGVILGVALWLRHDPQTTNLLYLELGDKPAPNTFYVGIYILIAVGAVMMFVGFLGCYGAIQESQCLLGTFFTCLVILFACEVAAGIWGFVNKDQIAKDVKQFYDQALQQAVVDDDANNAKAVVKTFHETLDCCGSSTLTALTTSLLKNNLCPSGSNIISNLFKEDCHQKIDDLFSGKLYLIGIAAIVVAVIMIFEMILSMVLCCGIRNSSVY

T8: human CD81 mutant A164V (human, UniProt P60033 1-236, limits assumed)
T8 construct: as m30; not shown: C-terminal V5 and 6xHis tags
T8 sequence: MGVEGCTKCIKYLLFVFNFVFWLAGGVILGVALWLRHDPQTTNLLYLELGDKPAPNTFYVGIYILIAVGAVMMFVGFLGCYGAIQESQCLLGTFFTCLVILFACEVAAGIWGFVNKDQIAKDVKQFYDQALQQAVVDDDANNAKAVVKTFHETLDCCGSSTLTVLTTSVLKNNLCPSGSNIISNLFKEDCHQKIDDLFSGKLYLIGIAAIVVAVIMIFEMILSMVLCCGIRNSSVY


Experiments:
[1] = target: T1, human CD81 on CD81-expressing cells …; assay: cell-based or functional assay
human CD81 mutant V169A = target: T2, human CD81 mutant V169A; assay: ELISA
human CD81 mutant V135A = target: T3, human CD81 mutant V135A; assay: ELISA
human CD81 mutant A164T = target: T4, human CD81 mutant A164T; assay: ELISA
human CD81 mutant L165A = target: T5, human CD81 mutant L165A; assay: ELISA
human CD81 mutant D137A = target: T6, human CD81 mutant D137A; assay: ELISA
human CD81 mutant V169L = target: T7, human CD81 mutant V169L; assay: ELISA
human CD81 mutant A164V = target: T8, human CD81 mutant A164V; assay: ELISA

Binder | Jurkat chemotaxis (% of control IgG4) at 0.001 µg/mL [1] [%] | Jurkat chemotaxis (% of control IgG4) at 0.01 µg/mL [1] [%] | Jurkat chemotaxis (% of control IgG4) at 0.1 µg/mL [1] [%] | Jurkat chemotaxis (% of control IgG4) at 1 µg/mL [1] [%] | Jurkat chemotaxis (% of control IgG4) at 10 µg/mL [1] [%] | relative binding affinity (human CD81 mutant V169A) [%] | relative binding affinity (human CD81 mutant V135A) [%] | relative binding affinity (human CD81 mutant A164T) [%] | relative binding affinity (human CD81 mutant L165A) [%] | relative binding affinity (human CD81 mutant D137A) [%] | relative binding affinity (human CD81 mutant V169L) [%] | relative binding affinity (human CD81 mutant A164V) [%]
001-B06 (antibody, human IgG4 S228P, lambda, V domains shown, IgG4 S228P) VH: EVQLLESGGGLVQPGGSLRLSCAASGFTFSSNYMSWVRQAPGKGLEWVSYISSSSTYTDYADSVKGRFTISRDNSKNTLYLQMNSLRAEDTAVYYCARYSYGRDTFDYWGQGTLVTVSS VL: QSVLTQPFSASGTPGQRVTISCTGSTSNIGAGYDTHWYQQLPGTAPKLLIYGNSNRPSGVPDRFSGSKSGTSASLAISGLRPEDEADYYCQSYDTSLSVWVFGGGTKLTVLG | 102 | 91 | 35 | 3 | 3 | < 20 | – | – | – | – | – | –
002-D03 (antibody, human IgG4 S228P, lambda, V domains shown, IgG4 S228P) VH: EVQLLESGGGLVQPGGSLRLSCAASGFTFRSNYMSWVRQAPGKGLEWVSYISSSSTYTDYADSVKGRFTISRDNSKNTLYLQMNSLRAEDTAVYYCARYSYGRDNFDYWGQGTLVTVSS VL: QSVLTQPPSASGTPGQRVTISCTGSTSNIGAGYDTHWYQQLPGTAPKLLIYGNSNRPSGVPDRFSGSKSGTSASLAISGLRSEDEADYYCQSYDTNLSVWVFGGGTKLTVLG | 105 | 91 | 25 | 14 | 16 | < 20 | < 20 | < 20 | < 20 | < 20 | < 20 | < 20
002-D08 (antibody, human IgG4 S228P, lambda, V domains shown, IgG4 S228P) VH: EVQLLESGGGLVQPGGSLRLSCATSGFPFSSNYMSWVRQAPGKGLEWVSYISSSSTYSDYADSVKGRFSISRDNSKNTLYLQMNSLRAEDTAVYYCARYSYGRDNFDYWGQGTLVTVSS VL: QSVLTQPSSASGTPGQRVTISCTGSTSNIGAGYATHWYQQLPGTAPKLLIYGNSNRPSGVPDRFSGSKSGTSASLAISGLRSEDEADYYCQSYDTNLSVWVFGGGTKLTVLG | 101 | 105 | 67 | 19 | 14 | < 20 | < 20 | < 20 | < 20 | – | – | < 20
002-C09 (antibody, human IgG4 S228P, lambda, V domains shown, IgG4 S228P) VH: EVQLLESGGGLVQPGGSLRLSCAASGFTFSSNYMSWVRQAPGKGLEWVSYISSSSTYTDYADSVKGRFTISRDNSKNTLYLQMNSLRAEDTAVYYCARYSYGRDNFDYWGQGTLVTVSS VL: QSVLTQPASASGTPGQRVTISCTGSTSNIGAGYGTHWYQRLPGTAPKLLIYGNSNRPSGVPDRFSGSKSGTSASLAISGLRSEDEADYYCQSYDTNLSGWVFGGGTKLTVLG | 101 | 82 | 15 | -1 | 11 | < 20 | < 20 | < 20 | < 20 | – | < 20 | < 20
002-B07 (antibody, human IgG4 S228P, lambda, V domains shown, IgG4 S228P) VH: EVQLLESGGGLVQPGGSLRLSCAASGFTFSSNYMSWVRQAPGKGLEWVSYISSSSTYTDYADSVKGRFTISRDNSKNTLYLQMNSLRAEDTAVYYCARYSYGRDNFDYWGQGTLVTVSS VL: QSVLTQPSSASGTPGQRVTISCTGSTSNIGAGYDTHWYQQLPGTAPKLLIYGNSNRPSGVPDRFSGSKSGTSASLAISGLRSEDEADYYCQSYDTNLSGWVFGGGTKLTVLG | 92 | 87 | 8 | 4 | -9 | < 20 | < 20 | < 20 | < 20 | – | < 20 | < 20

The remaining lines, values ahead:

Jurkat chemotaxis (% of control IgG4) at 0.001 µg/mL [1] [%] | Jurkat chemotaxis (% of control IgG4) at 0.01 µg/mL [1] [%] | Jurkat chemotaxis (% of control IgG4) at 0.1 µg/mL [1] [%] | Jurkat chemotaxis (% of control IgG4) at 1 µg/mL [1] [%] | Jurkat chemotaxis (% of control IgG4) at 10 µg/mL [1] [%] | relative binding affinity (human CD81 mutant V169A) [%] | relative binding affinity (human CD81 mutant V135A) [%] | relative binding affinity (human CD81 mutant A164T) [%] | relative binding affinity (human CD81 mutant L165A) [%] | relative binding affinity (human CD81 mutant D137A) [%] | relative binding affinity (human CD81 mutant V169L) [%] | relative binding affinity (human CD81 mutant A164V) [%] | Binder
106 | 89 | 13 | 0 | -3 | < 20 | < 20 | < 20 | < 20 | – | – | < 20 | 002-H03 (antibody, human IgG4 S228P, lambda, V domains shown, IgG4 S228P) VH: EVQLLESGGGLVQPGGSLRLSCAASGFTFSSNYMSWVRQAPGKGLEWVSYISSSSTYTDYADSVKGRFTISRDNSKNTLYLQMNSLRAEDTAVYYCARYSYGRDNFDYWGQGTLVTVSS VL: QSVLTQPSSASGTPGQRVTISCTGSTSNIGAGYDTHWYQQLPGTAPKPLIYGNSNRPSGVPDRFSGSKSGTSASLAISGLRSEDEADYYCQSYDTNLSAWVFGGGTKLTVLG
97 | 87 | 34 | 6 | 10 | < 20 | < 20 | < 20 | < 20 | – | < 20 | < 20 | 002-D10 (antibody, human IgG4 S228P, lambda, V domains shown, IgG4 S228P) VH: EVQLLESGGGLVQPGGSLRLSCAASGFTFSSNYMSWVRQAPGKGPEWVSYISSSSTYTDYADSVKGRFTISRDNSKNTLYLQMNSLRAEDTAVYYCARYSYGRDNFDYWGQGTLVTVSS VL: QSVLTQPSSASGTPGQRVTISCTGSTSNIGAGYDTHWYQQLPGTAPKLLIYGNSNRPSGVPDRFSGSKSGTSASLAVSGLRSEDEAEYYCQSYDTNLSGWVFGGGTKLTVLG
87 | 85 | -1 | -10 | -2 | < 20 | < 20 | < 20 | < 20 | – | < 20 | < 20 | 002-H02 (antibody, human IgG4 S228P, lambda, V domains shown, IgG4 S228P) VH: EVQLLESGGGLVQPGGSLRLSCAASGFTFSSNYMSWVRQAPGKGLEWVSYISSSSTYTDYADSVKGRFTISRDNSKNTLYLQMNSLRAEDTAVYYCARYSYGRDSFDYWGQGTLVTVSS VL: QSVLTQPSSASGTPGQRVTISCTGSTSNIGAGYGTHWYQQLPGTAPKLLIYGNSNRPSGVPDRFSGSKSGTSASLAISGLRSEDEADYYCQSYDTNLSVWVFGGGTKLTVLG
